The source of these data is publication PMC13169712.

Square brackets hold non-standard residues; d marks the D form. Ends that are not written are not given here. Hyp = O=C(O)[C@@H]1C[C@@H](O)CN1

One test concerns the target 8F3 human IgE mAb. In words: ELISA. The following applies: chain shown with the change; mAb 10 µg/mL (highest point of the titration); parent: est. 3.6; read off a plot. Background: ELISA stands for enzyme-linked immunosorbent assay.
The next test deals with 13D9 human IgE mAb. Kind of test: ELISA. The following applies: chain shown with the change; mAb 10 µg/mL (highest point of the titration); parent: est. 3.5; read off a plot.
In the next test the target is 1H9 human IgE mAb. Kind of test: ELISA. The conditions noted are these: chain shown with the change; mAb 10 µg/mL (highest point of the titration); parent: est. 3.3; read off a plot.
The target in another test is 16A8 human IgE mAb. Kind of test: ELISA. The conditions noted are these: chain shown with the change; mAb 10 µg/mL (highest point of the titration); parent: est. 3.4; read off a plot.
Test [1] concerns the target 38B7 human IgE mAb (human). Kind of test: SPR; Carterra LSA; antibody as ligand, allergen or peptide as analyte; how the antibody was held for these pairs is not told. In general terms: SPR reads the build-up and loss of mass on a sensor chip optically.

38B7 human IgE mAb (human), sequence (heavy, as listed by the source, chain 1 of 2): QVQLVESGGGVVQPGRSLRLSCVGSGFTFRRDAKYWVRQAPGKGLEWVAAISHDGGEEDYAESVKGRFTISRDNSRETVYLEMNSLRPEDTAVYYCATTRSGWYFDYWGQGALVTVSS
38B7 human IgE mAb (human), sequence (light, as listed by the source, chain 2 of 2): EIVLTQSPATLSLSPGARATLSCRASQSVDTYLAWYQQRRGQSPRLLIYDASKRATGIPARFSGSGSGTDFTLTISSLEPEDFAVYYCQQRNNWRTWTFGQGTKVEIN
13D9 human IgE mAb, sequence (chain, as listed by the source, chain 1 of 2): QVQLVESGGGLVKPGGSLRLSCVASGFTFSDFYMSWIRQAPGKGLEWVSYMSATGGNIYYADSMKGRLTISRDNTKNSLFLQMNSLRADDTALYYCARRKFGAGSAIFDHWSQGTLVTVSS
13D9 human IgE mAb, sequence (chain, as listed by the source, chain 2 of 2): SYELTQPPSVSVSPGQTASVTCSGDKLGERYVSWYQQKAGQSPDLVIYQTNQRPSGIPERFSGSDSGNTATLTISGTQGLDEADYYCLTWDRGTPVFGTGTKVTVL
16A8 human IgE mAb, sequence (chain, as listed by the source, chain 1 of 2): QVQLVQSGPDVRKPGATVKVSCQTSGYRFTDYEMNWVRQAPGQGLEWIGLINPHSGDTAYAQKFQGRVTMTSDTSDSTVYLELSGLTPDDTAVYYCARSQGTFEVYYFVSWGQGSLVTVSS
16A8 human IgE mAb, sequence (chain, as listed by the source, chain 2 of 2): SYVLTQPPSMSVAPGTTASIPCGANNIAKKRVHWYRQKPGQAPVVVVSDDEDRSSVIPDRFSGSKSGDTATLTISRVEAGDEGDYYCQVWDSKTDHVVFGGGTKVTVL
1H9 human IgE mAb, sequence (chain, as listed by the source, chain 1 of 2): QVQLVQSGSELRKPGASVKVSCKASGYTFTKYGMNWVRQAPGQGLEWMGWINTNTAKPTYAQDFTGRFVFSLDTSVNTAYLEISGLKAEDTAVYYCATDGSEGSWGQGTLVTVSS
1H9 human IgE mAb, sequence (chain, as listed by the source, chain 2 of 2): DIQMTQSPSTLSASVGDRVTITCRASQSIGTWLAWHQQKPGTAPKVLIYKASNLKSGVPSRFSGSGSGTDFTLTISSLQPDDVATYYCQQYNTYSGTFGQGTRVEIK
8F3 human IgE mAb, sequence (chain, as listed by the source, chain 1 of 2): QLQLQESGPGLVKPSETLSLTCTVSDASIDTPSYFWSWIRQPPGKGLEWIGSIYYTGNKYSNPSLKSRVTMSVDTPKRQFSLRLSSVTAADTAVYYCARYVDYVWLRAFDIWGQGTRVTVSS
8F3 human IgE mAb, sequence (chain, as listed by the source, chain 2 of 2): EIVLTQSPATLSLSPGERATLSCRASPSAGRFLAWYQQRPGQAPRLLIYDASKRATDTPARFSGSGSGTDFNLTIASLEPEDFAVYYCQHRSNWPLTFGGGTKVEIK

B1: Ara h 6c R90Q; Q91A (protein)
chain: SCERQVDRVNLKPCEQHIMQRIMGEQEQYDSYDIRSTRSSDQQQRCCDELNEMENTQGCMCEALQQIMENQCDRLQDQAMVQQFKRELMSLPQQCNFRAPQRCDLDVSGGRC
On to B1, for which the response with 8F3 human IgE mAb was determined as 3.6 OD 450nm; in the test with 13D9 human IgE mAb it was 3.5 OD 450nm; with 1H9 human IgE mAb, 1.6 OD 450nm; in the test with 16A8 human IgE mAb it was 3.4 OD 450nm.

B2: Ara h 6c Q113R; R114E (protein)
chain: SCERQVDRVNLKPCEQHIMQRIMGEQEQYDSYDIRSTRSSDQQQRCCDELNEMENTQGCMCEALQQIMENQCDRLQDRQMVQQFKRELMSLPQQCNFRAPRECDLDVSGGRC
For B2, the response in the test with 13D9 human IgE mAb turned out to be 3.5 OD 450nm; with 1H9 human IgE mAb it was 3.4 OD 450nm; in the test with 16A8 human IgE mAb it was 2.6 OD 450nm.

B3: Ara h 6c D19R; E27A; N82A (protein)
chain: SCERQVRRVNLKPCAQHIMQRIMGEQEQYDSYDIRSTRSSDQQQRCCDELNEMENTQGCMCEALQQIMEAQCDRLQDRQMVQQFKRELMSLPQQCNFRAPQRCDLDVSGGRC
On to B3, for which the response with 13D9 human IgE mAb amounted to 1.6 OD 450nm.
What is called Kd is the free concentration of one partner at which half of the binding sites on the other are occupied at equilibrium, for simple one-to-one binding. Lower therefore signals a tighter complex. By koff is commonly meant a measure of how fast the partners let go of each other. Read a low koff as slow dissociation. As usually defined, the kon is a measure of how fast the partners come together. Read a low kon as slower complex formation. In test [1], EDSYERDPYSPSQD [nonhydroxylated DPYSPS containing peptide (…)] returned a Kd of 7.1 µM, a koff of 0.0887 s⁻¹ and an on-rate (kon) of 16900 M⁻¹ s⁻¹.
The matching figures for EDSYERDPYS[Hyp]SQD [hydroxylated DPYSPS containing peptide (…^OHSQD)]: 0.02 µM, 0.00198 s⁻¹ and 101000 M⁻¹ s⁻¹.
